Among the data in publication PMC10861901 are Kd values, retold here.

In the assay the target is A. fulgidus DsrC-trisulfide (Archaeoglobus fulgidus). In words: SPR.

On to “DsrMKJOP complex of Archaeoglobus fulgidus (from UniProt O29749 1-332; O29748 1-555; O29747 1-142; O29751 27-269; O29750 1-395)”, for which the Kd turned out to be 0.2 µM.
